According to PMC11417371, “ENL reads histone β-hydroxybutyrylation to modulate gene transcription” (Nucleic Acids Research, 2024):

T1: AF9 (UniProt P42568 1-568)
T1 construct: AF9 (MLLT3), a YEATS domain-containing protein
T1 sequence (looked up): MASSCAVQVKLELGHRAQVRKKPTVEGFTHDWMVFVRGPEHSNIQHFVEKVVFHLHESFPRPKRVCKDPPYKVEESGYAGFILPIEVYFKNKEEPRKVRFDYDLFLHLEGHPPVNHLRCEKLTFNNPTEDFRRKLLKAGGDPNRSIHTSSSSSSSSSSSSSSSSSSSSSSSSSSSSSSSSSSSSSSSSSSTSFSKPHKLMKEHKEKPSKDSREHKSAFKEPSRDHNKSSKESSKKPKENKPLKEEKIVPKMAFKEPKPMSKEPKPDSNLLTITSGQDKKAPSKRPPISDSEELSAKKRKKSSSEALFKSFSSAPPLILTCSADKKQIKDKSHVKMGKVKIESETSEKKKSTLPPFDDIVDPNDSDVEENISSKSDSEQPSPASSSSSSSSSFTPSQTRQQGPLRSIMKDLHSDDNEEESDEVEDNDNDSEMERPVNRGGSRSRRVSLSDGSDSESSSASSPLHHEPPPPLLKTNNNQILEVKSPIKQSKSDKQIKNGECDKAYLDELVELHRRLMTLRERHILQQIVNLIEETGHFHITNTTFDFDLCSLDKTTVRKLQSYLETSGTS


What was measured:
GAS41 = target: T2, GAS41 (UniProt O95619 1-227); test: ITC; MicroCal PEAQ ITC, 15°C; protein at 100 μM dropped into the 1000 μM peptide, 19 drops; one set of binding sites model; details: both partners purified
T2 construct: GAS41 (YEATS4), a YEATS domain-containing protein

AF9 = target: T1, AF9; test: as above; details: both partners purified
[1] = target: Probe H3K9bhb (Kbhb-installed histone H3 peptide on gold nanoparticles with photo-cross-linker-linked PEG); test: affinity purification with mass spectrometry; photoaffinity enrichment with probes H3K9bhb and H3K9, read out by parallel reaction monitoring (PRM) mass spectrometry

T2 sequence (O95619 whole entry, the tested form may be a part): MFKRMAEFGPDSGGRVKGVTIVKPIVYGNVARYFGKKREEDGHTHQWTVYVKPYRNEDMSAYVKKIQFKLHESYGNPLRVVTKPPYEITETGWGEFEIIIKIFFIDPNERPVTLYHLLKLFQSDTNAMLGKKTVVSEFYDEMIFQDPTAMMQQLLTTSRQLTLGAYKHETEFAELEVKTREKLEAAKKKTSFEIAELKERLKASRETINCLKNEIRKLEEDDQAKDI

| Kd (GAS41) [µM] | Kd (AF9) [µM] | fold enrichment over probe H3K9 [1] [fold] | Binder |
| --- | --- | --- | --- |
| 6.7 | 11 |  | ARTKQTARKSTGGKAPR (peptide, UniProt P68431 2-18, looked up, β-hydroxybutyryl-lysine at K9, histone H3, residues 1-17; The text calls the ITC peptides 'histone H3K14 (1–17) peptides', the legend 'H31-17 peptides'; also called H3K9bhb peptide; source: synthetic peptide (Beijing SciLight Biotechnology, HPLC purified)) [β-hydroxybutyryl histone H3 1-17 peptide (H3K9bhb)] |
|  |  | 3.9 | ENL (endogenous) (natural protein) MDNQCTVQVRLELGHRAQLRKKPTTEGFTHDWMVFVRGPEQCDIQHFVEKVVFWLHDSFPKPRRVCKEPPYKVEESGYAGFIMPIEVHFKNKEEPRKVCFTYDLFLNLEGNPPVNHLRCEKLTFNNPTTEFRYKLLRAGGVMVMPEGADTVSRPSPDYPMLPTIPLSAFSDPKKTKPSHGSKDANKESSKTSKPHKVTKEHRERPRKDSESKSSSKELEREQAKSSKDTSRKLGEGRLPKEEKAPPPKAAFKEPKMALKETKLESTSPKGGPPPPPPPPPRASSKRPATADSPKPSAKKQKKSSSKGSRSAPGTSPRTSSSSSFSDKKPAKDKSSTRGEKVKAESEPREAKKALEVEESNSEDEASFKSESAQSSPSNSSSSSDSSSDSDFEPSQNHSQGPLRSMVEDLQSEESDEDDSSSGEEAAGKTNPGRDSRLSFSDSESDNSADSSLPSREPPPPQKPPPPNSKVSGRRSPESCSKPEKILKKGTYDKAYTDELVELHRRLMALRERNVLQQIVNLIEETGHFNVTNTTFDFDLFSLDETTVRKLQSCLEAVAT |
